Values of other authors, collected in patent publication US10023622B2, “Method of immunization for reducing toxic damaged caused by oligomeric form of the amyloid-beta protein with stable amyloid beta monomers and oligomers” (ALZINOVA AB, priority 2008, dated 2018).

Conditions: oxidized derivatives (cystines)

Substance	Fibrillation of oxidized disulphide mutants
F19C/A30C: previously published Aβ peptide disulphide mutant (Wetzel et al.)	all fibrillate
F19C/I32C: previously published Aβ peptide disulphide mutant (Wetzel et al.)	all fibrillate
F19C/L34C: previously published Aβ peptide disulphide mutant (Wetzel et al.)	all fibrillate
L17C/L34C: previously published Aβ peptide disulfide mutant (Shivaprasad and Wetzel)	all fibrillate
L17C/M35C: previously published Aβ peptide disulfide mutant (Shivaprasad and Wetzel)	all fibrillate
V18C/L34C: previously published Aβ peptide disulphide mutant (Wetzel et al.)	all fibrillate
